Consider one substance from patent publication US20240000837A1.

This assay deals with HLA-C1 expressed in the tumor cell membrane (HLA class I on Panc0203 / HPAC tumor cells) (human). Nature of the assay: flow cytometry on Panc02.03 cells, PE-conjugated anti-Fc secondary staining. For orientation: In flow cytometry, cells or beads pass a laser one at a time.

“fusion protein encompassing the extracellular domain of KIR2DL2 linked to the Fc portion of an antibody (KIR2DL2-Fc) (from UniProt P43627 22-245) (Fc fusion)” displayed a percent of cells bound above 60%.
